{
  "source": "patent US20260055205A1",
  "about": "(published 2026)",
  "binders": {"B1": {"name": "AMX-500(1x-C) (bispecific antibody)", "chain": "GTSESATPESQVQLVESGGGVVQPGRSLRLSCAASGRTFGIYVWGWFRQAPGKEREFVGAMSWSGSNRKVSDSVKGRFTISRDNSKNTLYLQMNSLRAEDTAVYYCAASNKEYGRTWYDFNESDYWGQGTQVTVSSGGGGSGGGSELVVTQEPSLTVSPGGTVTLTCRSSNGAVTSSNYANWVQQKPGQAPRGLIGGTNKRAPGTPARFSGSLLGGKAALTLSGVQPEDEAVYYCALWYPNLWVFGGGTKLTVLSESATPESGPGTSPGATPESGPGTSESATPEVQLVESGGGIVQPGGSLRLSCAASGFTFSTYAMNWVRQAPGKGLEWVGRIRTKRNNYATYYADSVKGRFTISRDDSKNTVYLQMNSLKTEDTAVYYCVRHENFGNSYVSWFAHWGQGTLVTVSSGTATPESGPGEAGRSASHTPAGLTGPATPESGPGTSESATPESGPGSPAGSPTSTEEGTSESATPESGPGSEPATSGSETPGTSESATPESGPGTSTEPSEGSAPGTSTEPSEGSAPGTSTEPSEGSAPGTSTEPSEGSAPGTSTEPSEGSAPGTSTEPSEGSAPGSPAGSPTSTEEGTSTEPSEGSAPGTSESATPESGPGSEPATSGSETPGTSESATPESGPGSEPATSGSETPGTSESATPESGPGTSTEPSEGSAPGTSESATPESGPGSPAGSPTSTEEGSPAGSPTSTEEGSPAGSPTSTEEGTSESATPESGPGTSTEPSEGSAPGTSESATPESGPGSEPATSGSETPGTSESATPESGPGSEPATSGSETPGTSESATPESGPGTSTEPSEGSAPGSPAGSPTSTEEGTSESATPESGPGSEPATSGSETPGTSESATPESGPGSPAGSPTSTEEGSPAGSPTSTEEGTSTEPSEGSAPGTSESATPESGPGTSESATPESGPGTSPSATPESGPGSEPATSGSETPGSEPATSGSETPGSPAGSPTSTEEGTSTEPSEGSAPGTSTEPSEGSAPGSEPATSGSETPGTSESAGEPEA", "notes": "Lacks the mask linked to the PSMA domain"}, "B2": {"name": "uTCE of AC3356 (bispecific antibody)", "chain": "QVQLVESGGGVVQPGRSLRLSCAASGRTFGIYVMGWVRQAPGKEREFVAAISWSGSNRLVSDSVKGRFTISRDNSKNTLYLQMNSLRAEDTAVYYCAASNRLYGRTWYDFNESDYWGQGTQVTVSSGGGGSGGGSEVQLLESGGGIVQPGGSLKLSCAASGFTFNTYAMNWVRQAPGKGLEWVARIRSKYNNYATYYADSVKDRFTISRDDSKNTVYLQMNNLKTEDTAVYYCVRHENFGNSYVSWFAHWGQGTLVTVSSGATPPETGAETESPGETTGGSAESEPPGEGELVVTQEPSLTVSPGGTVTLTCRSSNGAVTSSNYANWVQQKPGQAPRGLIGGTNKRAPGTPARFSGSLLGGKAALTLSGVQPEDEAVYYCALWYPNLWVFGGGTKLTVL", "notes": "CD3.23 in VH-VL order; also called PSMA.5 (domain swap)"}, "B3": {"name": "uTCE of AC3354 (bispecific antibody)", "chain": "QVQLVESGGGVVQPGRSLRLSCAASGRTFGIYVMGWVRQAPGKEREFVAAISWSGSNRLVSDSVKGRFTISRDNSKNTLYLQMNSLRAEDTAVYYCAASNRLYGRTWYDFNESDYWGQGTQVTVSSGATPPETGAETESPGELVVTQEPSLTVSPGGTVTLTCRSSNGAVTSSNYANWVQQKPGQAPRGLIGGTNKRAPGTPARFSGSLLGGKAALTLSGVQPEDEAVYYCALWYPNLWVFGGGTKLTVLGATPPETGAETESPGETTGGSAESEPPGEGEVQLLESGGGIVQPGGSLKLSCAASGFTFNTYAMNWVRQAPGKGLEWVARIRSKYNNYATYYADSVKDRFTISRDDSKNTVYLQMNNLKTEDTAVYYCVRHENFGNSYVSWFAHWGQGTLVTVSS", "notes": "also called PSMA.5 (15 mer)"}, "B4": {"name": "uTCE of AC3265 (bispecific antibody)", "chain": "QVQLVESGGGVVQPGRSLRLSCAASGRTFGIYVMGWYRQAPGKEREFVAAISWSGSNRLVSDSVKGRFTISRDNSKNTLYLQMNSLRAEDTAVYYCAASNRLYGRTWYDFNESDYWGQGTQVTVSSGGGGSGGGSELVVTQEPSLTVSPGGTVTLTCRSSNGAVTSSNYANWVQQKPGQAPRGLIGGTNKRAPGTPARFSGSLLGGKAALTLSGVQPEDEAVYYCALWYPNLWVFGGGTKLTVLGATPPETGAETESPGETTGGSAESEPPGEGEVQLLESGGGIVQPGGSLKLSCAASGFTFNTYAMNWVRQAPGKGLEWVARIRSKYNNYATYYADSVKDRFTISRDDSKNTVYLQMNNLKTEDTAVYYCVRHENFGNSYVSWFAHWGQGTLVTVSS", "notes": "Linker given only as 9 residues; also called PSMA.55"}, "B5": {"name": "uTCE of AC3342 (bispecific antibody)", "chain": "B4 chain with Y37V, R101K", "notes": "Linker given only as 9 residues; also called PSMA.132"}, "B6": {"name": "uTCE of AC3329 (bispecific antibody)", "chain": "B4 chain with Y37V, L59K", "notes": "also called PSMA.119"}},
  "key": {"[1]": {"target": "T1, cynomolgus monkey PSMA (cynomolgus monkey, UniProt A0A2K5VNZ0 44-750)", "T1 construct": "also called cyPSMA; cyno PSMA", "assay": "BLI or SPR"}, "[2]": {"target": "T2, human PSMA (human, UniProt Q04609 44-750, limits assumed)", "T2 construct": "also called huPSMA; hPSMA", "T2 sequence (Q04609 44-750 limits assumed)": "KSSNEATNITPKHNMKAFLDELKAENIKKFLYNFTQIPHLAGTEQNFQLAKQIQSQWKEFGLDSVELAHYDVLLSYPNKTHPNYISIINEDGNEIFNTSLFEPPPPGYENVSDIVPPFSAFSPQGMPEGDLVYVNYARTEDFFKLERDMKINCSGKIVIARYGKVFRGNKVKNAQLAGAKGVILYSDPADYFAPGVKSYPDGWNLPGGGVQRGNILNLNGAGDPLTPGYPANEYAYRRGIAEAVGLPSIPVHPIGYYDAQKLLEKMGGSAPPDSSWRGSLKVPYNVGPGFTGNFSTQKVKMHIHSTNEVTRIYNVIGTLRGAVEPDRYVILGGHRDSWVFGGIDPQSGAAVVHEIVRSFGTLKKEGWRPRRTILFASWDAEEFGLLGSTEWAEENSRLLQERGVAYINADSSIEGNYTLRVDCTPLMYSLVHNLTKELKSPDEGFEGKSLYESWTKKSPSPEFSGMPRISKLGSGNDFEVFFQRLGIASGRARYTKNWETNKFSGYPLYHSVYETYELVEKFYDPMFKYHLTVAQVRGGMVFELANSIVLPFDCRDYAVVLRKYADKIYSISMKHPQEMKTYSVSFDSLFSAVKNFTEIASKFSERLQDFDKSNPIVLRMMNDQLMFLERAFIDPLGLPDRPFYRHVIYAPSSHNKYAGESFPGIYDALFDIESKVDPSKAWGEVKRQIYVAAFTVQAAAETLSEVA", "assay": "BLI or SPR"}, "[3]": {"target": "T3, human CD3 epsilon (human, UniProt P07766 23-126, limits assumed)", "T3 construct": "also called huCD3e", "T3 sequence (P07766 23-126 limits assumed)": "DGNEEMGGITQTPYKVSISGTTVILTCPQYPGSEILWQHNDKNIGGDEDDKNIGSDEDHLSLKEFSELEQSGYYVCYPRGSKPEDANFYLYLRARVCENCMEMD", "assay": "BLI or SPR"}, "[4]": {"target": "T4, cynomolgus monkey CD3 epsilon (cynomolgus monkey, UniProt Q95LI5 22-117, limits assumed)", "T4 construct": "also called cyCD3e; cyno CD3", "T4 sequence (looked up)": "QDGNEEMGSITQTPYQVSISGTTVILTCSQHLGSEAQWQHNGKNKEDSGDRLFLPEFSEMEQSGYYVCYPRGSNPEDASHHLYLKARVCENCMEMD", "assay": "BLI or SPR"}, "[5]": {"target": "T5, human PSMA-Fc (human, UniProt Q04609 44-750)", "T5 construct": "also called Human PSMA-Fc fusion", "T5 sequence (Q04609 44-750 limits assumed)": "as the sequence (Q04609 44-750 limits assumed) above", "assay": "Octet"}, "[6]": {"target": "T5, human PSMA-Fc", "assay": "Octet", "remark": "listed apart in the source"}, "[7]": {"target": "T5, human PSMA-Fc", "assay": "Octet, PSMA-Fc", "description": "Binding affinity of select PSMA PTE variants was tested by Octet."}, "[8]": {"target": "T2, human PSMA", "assay": "binding screen"}},
  "note": "Changes are numbered by the printed parent chain.",
  "data": [
    {"binder": "B1", "values": [
      {"measurement": "Kd", "setting": "[1]", "value": 2900, "unit": "nM"},
      {"measurement": "koff", "setting": "[1]", "value": 0.039, "unit": "s⁻¹"},
      {"measurement": "kon", "setting": "[1]", "value": 14000, "unit": "M⁻¹ s⁻¹"},
      {"measurement": "Kd", "setting": "[2]", "value": 353, "unit": "nM"},
      {"measurement": "koff", "setting": "[2]", "value": 0.012, "unit": "s⁻¹"},
      {"measurement": "kon", "setting": "[2]", "value": 35000, "unit": "M⁻¹ s⁻¹"},
      {"measurement": "Kd", "setting": "[3]", "value": 34.4, "unit": "nM"},
      {"measurement": "koff", "setting": "[3]", "value": 0.1, "unit": "s⁻¹"},
      {"measurement": "kon", "setting": "[3]", "value": "3.2e+06", "unit": "M⁻¹ s⁻¹"},
      {"measurement": "Kd", "setting": "[4]", "value": 26.7, "unit": "nM"},
      {"measurement": "koff", "setting": "[4]", "value": 0.1, "unit": "s⁻¹"},
      {"measurement": "kon", "setting": "[4]", "value": "3.4e+06", "unit": "M⁻¹ s⁻¹"}
    ]},
    {"binder": "B2", "values": [
      {"measurement": "Kd", "setting": "[5]", "value": 2.4, "unit": "nM"},
      {"measurement": "Kd", "setting": "[6]", "value": 2.4, "unit": "nM"},
      {"measurement": "koff", "setting": "[6]", "value": 0.00018, "unit": "s⁻¹"},
      {"measurement": "kon", "setting": "[6]", "value": 76000, "unit": "M⁻¹ s⁻¹"}
    ]},
    {"binder": "B3", "values": [
      {"measurement": "Kd", "setting": "[5]", "value": 3.5, "unit": "nM"},
      {"measurement": "Kd", "setting": "[6]", "value": 3.5, "unit": "nM"},
      {"measurement": "koff", "setting": "[6]", "value": 0.00027, "unit": "s⁻¹"},
      {"measurement": "kon", "setting": "[6]", "value": 77000, "unit": "M⁻¹ s⁻¹"}
    ]},
    {"binder": "B4", "values": [
      {"measurement": "Kd", "setting": "[5]", "value": 2.7, "unit": "nM"},
      {"measurement": "Kd", "setting": "[7]", "value": 2.7, "unit": "nM"},
      {"measurement": "koff", "setting": "[7]", "value": 0.00028, "unit": "s⁻¹"},
      {"measurement": "kon", "setting": "[7]", "value": 104000, "unit": "M⁻¹ s⁻¹"}
    ]},
    {"binder": "B5", "values": [
      {"measurement": "Kd", "setting": "[5]", "value": 5.6, "unit": "nM"},
      {"measurement": "Kd", "setting": "[7]", "value": 5.6, "unit": "nM"},
      {"measurement": "koff", "setting": "[7]", "value": 0.000479, "unit": "s⁻¹"},
      {"measurement": "kon", "setting": "[7]", "value": 86600, "unit": "M⁻¹ s⁻¹"}
    ]},
    {"binder": "B6", "values": [
      {"measurement": "Kd", "setting": "[5]", "value": 3.2, "unit": "nM"},
      {"measurement": "Kd", "setting": "[7]", "value": 3.2, "unit": "nM"},
      {"measurement": "koff", "setting": "[7]", "value": 0.000248, "unit": "s⁻¹"},
      {"measurement": "kon", "setting": "[7]", "value": 80000, "unit": "M⁻¹ s⁻¹"},
      {"measurement": "Kd", "setting": "[8]", "value": 4.1, "unit": "nM"}
    ]}
  ]
}
